# Key:
# [1] = target: T1, alpha-synuclein fibril, F-type conformer (fibrils) (UniProt P37840 P37840:1-140); test: FP filter; nitrocellulose filter; retained much more than random sequence
# [2] = target: alpha-synuclein fibril P110 (C-terminally truncated) (UniProt P37840 P37840:1-110); test: FP filter; nitrocellulose filter; conditions: tags: fibril lacking the 30 C-terminal residues, chain copies: fibril (stated)
# Protocol: (§1) The affinity of candidate aptamers as well as that of aptamers from the literature was also measured against different “amyloid” type fibers (Tau1N3R fibers and Aβ40 fibers), in addition to the conformers of F and R α-syn fiber. The affinity of the candidate aptamers against the α-Syn fiber “P110” was also measured. This fiber was made from α-Syn protein truncated from amino acid n° 110 (thus missing the 30 amino acids of the C-terminal domain). The oligonucleotides (aptamers) at 10 nM (hybridized by heat shock to SpG-LNA radioactively marked with P32 for RNA2′F chemistry oligonucleotides, or directly marked with P32 for DNA oligonucleotides) were presented to proteins at 250 nM in a solution of Ts1X containing Igepal at 0.1% and ssDNA added in a 5-1 proportion relative to the oligonucleotides (that is to say between 0.135 μg/ml and 17.325 μg/ml). After 30 min of incubation at 37° C., 25 μL of each mixture is deposited on the nitrocellulose membrane, then filtered. Two washes with Ts1X are then carried out. The amounts of oligonucleotides retained on the nitrocellulose membrane are quantified by exposing the membrane to a photostimulable phosphorus screen. The Kd and Bₘₐₓ were calculated by means of the Prism software using a non-linear regression model analyzing the (specific and non-specific) total affinity of a candidate for the target, assuming that there is only one binding site on the target for the candidate. The measurements were carried out in triplicate (three independent experiments on different days) for the F and R type α-Syn fibers, and in duplicate for the other fibers (Tau1N3R and the fibers Aβ40, and P110) as well as for α-Syn monomers.
# [3] = target: T1, alpha-synuclein fibril, F-type …; test: FP filter; nitrocellulose filter; 10 nM aptamer, 1 uM fibers, Ts1X, 37 C
# [4] = target: alpha-synuclein fibril, R-type conformer (ribbons) (UniProt P37840 P37840:1-140); test: FP filter; nitrocellulose filter; not above random sequence
# [5] = target: T1, alpha-synuclein fibril, F-type …; test: as above
# [6] = target: amyloid-beta 40 fibril (UniProt P05067 P05067:672-711); test: FP filter; nitrocellulose filter; conditions: tags: Abeta40 fibers, chain copies: fibril (stated)
# Protocol: as §1
# [7] = target: T1, alpha-synuclein fibril, F-type …; test: FP filter; nitrocellulose filter; Ts1X (10 mM HEPES pH 7.6, 150 mM NaCl, 5 mM KCl, 1.5 mM CaCl2, 1 mM MgCl2), 0.1% Igepal, ssDNA competitor, 37 C; Bmax 52.48 fmol; 3/3
# Chain of amyloid-beta 40 fibril (P05067 672-711, one chain of several): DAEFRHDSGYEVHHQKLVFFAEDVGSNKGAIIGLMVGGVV
binder,measurement,setting,value
"F124-G (PF_124) (ssRNA, 2'-F on all pyrimidines) RNA: GGGAGAGUAUCCGUUGGAGGCAUCACGGACACCUACCCGACGGCAUGUCAGGACACAUGUUGUGCUCCGUGUGAGAUCGGAAGAGCGUCGUGUAGGGCAUUGCCCCAGCGUGACUGCCUA",binding result,[1],binds
"P65-G (P65_10854) (ssRNA, 2'-F on all pyrimidines) RNA: GGGAGAGUAUCCGUUGGAGGCAUCGCACAGUGUACACCUACACACAGCAUACCUGUUGGCAUCCCAGGUUGCCAGAUCGGAAGAGCGUCGUGUAGGGCAUUGCCCCAGCGUGACUGCCUA",binding result,[1],binds
"N124-G (ssRNA, 2'-F on all pyrimidines) RNA: GGGAGAGUAUCCGUUGAGGCUGAUCCGACCAUGCUUCAACUUAUACCUCGGGGACUGUAGAUCGGAAGAGCGUCGUGUAGGGCAUUGCCCCAGCGUGACUGCCUA",binding result,[2],no binding
"4F01-G (ssRNA, 2'-F on all pyrimidines) RNA: GGGAGAGUAUCCGUUGGAGGCAUAGCAGCACACGACCAGUGUGCCCCACACCCAGUGGUGGUCUGUGGUGUGCAGAUCGGAAGAGCGUCGUGUAGGGCAUUGCCCCAGCGUGACUGCCUA",binding result,[1],binds
"4F05-G (ssRNA, 2'-F on all pyrimidines) RNA: GGGAGAGUAUCCGUUGGAGGCAUGCCGCAGGCUACACCACAGCUUCCCCUUCAGCGUGUUGUGGAUACUCGGCAGAUCGGAAGAGCGUCGUGUAGGGCAUUGCCCCAGCGUGACUGCCUA",binding result,[1],binds
"N3-G (ssRNA, 2'-F on all pyrimidines) RNA: GGGAGAGUAUCCGUUGAGGCUGACAACGCGUUUACCUCACACCACGUCAUCCGUUGCCAGAUCGGAAGAGCGUCGUGUAGGGCAUUGCCCCAGCGUGACUGCCUA",binding signal,[3],3.5 fold over Scr2-G
Tau 3146 (ssDNA) DNA: GCCTGTTGTGAGCCTCCTGTCGAACCTTTGGGGTGGCTTGACGAAGAAAGTAGTTGAGCGTTTATTCTTGTCTCCC,binding result,[4],no binding
same,binding result,[5],no binding
F5R2 (ssDNA) DNA: ATCGAGTGGACGAGTGCCTCCGGTACGAGCTGTCTGATGGGTTTGCGCGCAGGATCCA,binding result,[6]; label: 32P,no binding
same,binding result,[2]; label: 32P,no binding
"4F02-G (ssRNA, 2'-F on all pyrimidines) RNA: GGGAGAGUAUCCGUUGGAGGCAUGCUGGCAGCACGCACCGCUGACCGCUGGCUGCACUAUGCGUGUGGAGUGCAGAUCGGAAGAGCGUCGUGUAGGGCAUUGCCCCAGCGUGACUGCCUA",binding result,[1],binds
"N30-G (ssRNA, 2'-F on all pyrimidines) RNA: GGGAGAGUAUCCGUUGAGGCUGAUCGAUCCACGUCCGACAACGCGUUUACUCGCCAUCAGAUCGGAAGAGCGUCGUGUAGGGCAUUGCCCCAGCGUGACUGCCUA",binding result,[6],no binding
same,binding result,[2],no binding
same,Kd,[7],6.62 nM
"4F03-G (ssRNA, 2'-F on all pyrimidines) RNA: GGGAGAGUAUCCGUUGGAGGCAUGCAACAGACGCACCGUACACACAUCUUGGCCGUUGGCUGCCCGACCAGCCAGAUCGGAAGAGCGUCGUGUAGGGCAUUGCCCCAGCGUGACUGCCUA",binding result,[1],binds
